Test results taken from the Immune Epitope Database (IEDB).

How the values were obtained:
[1] = biological target: HLA-B*07:02; assay: IEDB peptide-MHC binding, purified MHC/direct/fluorescence; filed as Kd, often an IC50 or EC50 that approximates it; ≥ and ≤ were set here for values at or beyond the usual limits of such assays
[2] = biological target: HLA-A*31:01; assay: as above; details: source organism: Cryptosporidium hominis
[3] = biological target: HLA-B*18:01; assay: as above; details: source organism: Cryptosporidium hominis
[4] = biological target: HLA-A*01:01; assay: as above; details: source organism: Cryptosporidium hominis
[5] = biological target: HLA-A*03:01; assay: as above
[6] = biological target: HLA-B*44:02; assay: as above; details: source organism: Cryptosporidium hominis
[7] = biological target: HLA-B*48:01; assay: as above; details: source organism: Cryptosporidium hominis
[8] = biological target: HLA-B*57:01; assay: as above; details: source organism: Cryptosporidium hominis
[9] = biological target: HLA-B*08:03; assay: as above; details: source organism: Cryptosporidium parvum Iowa II
[10] = biological target: HLA-B*58:01; assay: as above; details: source organism: Cryptosporidium hominis
[11] = biological target: HLA-B*40:01; assay: as above; details: source organism: Cryptosporidium hominis
[12] = biological target: HLA-A*02:01; assay: IEDB peptide-MHC binding, purified MHC/competitive/fluorescence; filed as Kd, often an IC50 or EC50 that approximates it; ≥ and ≤ were set here for values at or beyond the usual limits of such assays
[13] = biological target: HLA-A*31:01; assay: as above
[14] = biological target: HLA-B*45:06; assay: as above; details: source organism: Zaire ebolavirus
[15] = biological target: HLA-B*18:01; assay: as above
[16] = biological target: HLA-B*83:01; assay: as above; details: source organism: Zaire ebolavirus
[17] = biological target: HLA-B*15:17; assay: as above
[18] = biological target: HLA-B*27:03; assay: as above
[19] = biological target: HLA-B*46:01; assay: as above
[20] = biological target: HLA-B*57:01; assay: as above
[21] = biological target: HLA-B*39:01; assay: as above
[22] = biological target: HLA-B*15:01; assay: as above
[23] = biological target: HLA-B*15:42; assay: as above; details: source organism: Zaire ebolavirus
[24] = biological target: HLA-B*51:01; assay: as above
[25] = biological target: HLA-A*02:12; assay: IEDB peptide-MHC binding, purified MHC/direct/fluorescence; filed as Kd, often an IC50 or EC50 that approximates it; ≥ and ≤ were set here for values at or beyond the usual limits of such assays
[26] = biological target: HLA-A*02:03; assay: as above
[27] = biological target: HLA-A*02:16; assay: as above
[28] = biological target: HLA-A*24:03; assay: as above
[29] = biological target: HLA-A*02:19; assay: as above
[30] = biological target: HLA-B*08:01; assay: IEDB peptide-MHC binding, purified MHC/competitive/fluorescence; filed as Kd, often an IC50 or EC50 that approximates it; ≥ and ≤ were set here for values at or beyond the usual limits of such assays
[31] = biological target: HLA-A*03:01; assay: as above; details: source organism: Escherichia coli 536
[32] = biological target: HLA-A*11:01; assay: IEDB peptide-MHC binding, purified MHC/direct/fluorescence; filed as Kd, often an IC50 or EC50 that approximates it; ≥ and ≤ were set here for values at or beyond the usual limits of such assays
[33] = biological target: HLA-A*69:01; assay: IEDB peptide-MHC binding, purified MHC/competitive/fluorescence; filed as Kd, often an IC50 or EC50 that approximates it; ≥ and ≤ were set here for values at or beyond the usual limits of such assays
[34] = biological target: HLA-A*02:06; assay: as above; details: source organism: Human immunodeficiency virus 1
[35] = biological target: HLA-A*02:12; assay: as above; details: source organism: Human immunodeficiency virus 1
[36] = biological target: HLA-A*02:03; assay: as above; details: source organism: Human immunodeficiency virus 1
[37] = biological target: HLA-A*02:16; assay: as above
[38] = biological target: HLA-A*02:19; assay: as above; details: source organism: Human immunodeficiency virus 1
[39] = biological target: HLA-A*26:01; assay: as above; details: source organism: Orthohantavirus puumalaense
[40] = biological target: HLA-B*35:01; assay: as above; details: source organism: Orthohantavirus puumalaense
[41] = biological target: HLA-A*68:02; assay: IEDB peptide-MHC binding, purified MHC/direct/fluorescence; filed as Kd, often an IC50 or EC50 that approximates it; ≥ and ≤ were set here for values at or beyond the usual limits of such assays; details: source organism: Limestone Canyon virus
[42] = biological target: HLA-A*29:02; assay: as above; details: source organism: Limestone Canyon virus
[43] = biological target: HLA-A*02:11; assay: as above; details: source organism: Limestone Canyon virus
[44] = biological target: HLA-C*03:03; assay: as above; details: source organism: Mycobacterium tuberculosis C
[45] = source organism: Cryptosporidium hominis
[46] = source organism: Zaire ebolavirus
[47] = source organism: Escherichia coli
[48] = source organism: Escherichia coli 536
[49] = source organism: Human immunodeficiency virus 1
[50] = source organism: Orthohantavirus puumalaense
[51] = source organism: Limestone Canyon virus
[52] = source organism: Vibrio vulnificus
[53] = source organism: Mycobacterium tuberculosis C
[54] = source organism: Influenza A virus (A/Belfast/53582/2004(H3N?))

FMKSRVYSI was tested, and the Kd [1, 45] was ≥ 20 µM, the Kd [2] was ≥ 20 µM and the Kd [3] was ≥ 20 µM. The Kd [4] was ≥ 20 µM, the Kd [5, 45] was ≥ 20 µM and the Kd [6] was ≥ 20 µM. For the same sequence, the Kd [7] was ≥ 20 µM, the Kd [8] was ≥ 20 µM and the Kd [9] was 0.029 µM. The Kd [10] was ≥ 20 µM and the Kd [11] was ≥ 20 µM.

With FTFDLTALK the Kd [12, 46] was ≥ 20 µM, the Kd [13, 46] was ≥ 20 µM and the Kd [14] was ≥ 5 µM. The Kd [15, 46] was ≥ 20 µM, the Kd [16] was ≥ 5 µM and the Kd [17, 46] was ≥ 20 µM. The Kd [18, 46] was ≥ 20 µM, the Kd [19, 46] was ≥ 20 µM and the Kd [20, 46] was ≥ 20 µM. The Kd [21, 46] was ≥ 20 µM, the Kd [22, 46] was ≥ 20 µM and the Kd [23] was ≥ 5 µM. The Kd [24, 46] was ≥ 20 µM, the Kd ([5]; source organism: Ebola virus - Gabon (1994-1997)) was 0.229 µM and the Kd [25, 46] was ≥ 20 µM. For the same sequence, the Kd [26, 46] was ≥ 20 µM, the Kd [27, 46] was ≥ 20 µM and the Kd [28, 46] was ≥ 20 µM. For the same sequence, the Kd [29, 46] was ≥ 20 µM.

For HLAGYSGVL, the Kd [30, 47] was 1.9 µM, the Kd [21, 47] was 0.0025 µM and the Kd [22, 47] was 0.353 µM.

Sequence KIPATVIAR has a Kd [13, 48] of 0.0344 µM and a Kd [31] of 0.031 µM.

KTALTGAMR gave a Kd ([13]; source organism: Yellow fever virus 1899/81) of 0.016 µM and a Kd ([32]; source organism: Yellow fever virus) of 0.0151 µM.

With LIAVPHTKL the Kd [30, 48] was ≥ 20 µM.

For SLVKHHMYV, the Kd [12, 49] was 0.00733 µM, the Kd [33, 49] was 0.145 µM and the Kd [34] was ≤ 0.0001 µM. For the same sequence, the Kd [35] was 0.00935 µM, the Kd [36] was 0.00188 µM and the Kd [37, 49] was 0.000572 µM. The Kd [38] was 0.0173 µM.

With SPVMGVIGF the Kd [12, 50] was ≥ 20 µM, the Kd [39] was ≥ 20 µM and the Kd [15, 50] was ≥ 20 µM. The Kd [17, 50] was ≥ 20 µM, the Kd [18, 50] was ≥ 20 µM and the Kd [40] was 0.0005 µM. For the same sequence, the Kd [19, 50] was ≥ 20 µM, the Kd [33, 50] was ≥ 20 µM and the Kd [20, 50] was ≥ 20 µM. The Kd [21, 50] was ≥ 20 µM, the Kd [22, 50] was ≥ 20 µM and the Kd [24, 50] was ≥ 20 µM. For the same sequence, the Kd [1, 50] was 0.0607 µM, the Kd [41] was ≥ 20 µM and the Kd [5, 51] was ≥ 20 µM. The Kd [25, 51] was ≥ 20 µM, the Kd [26, 51] was ≥ 20 µM and the Kd [42] was ≥ 20 µM. The Kd [27, 51] was ≥ 20 µM, the Kd [28, 51] was ≥ 20 µM and the Kd [29, 51] was ≥ 20 µM. For the same sequence, the Kd [43] was ≥ 20 µM.

For SSGVFHSYK, the Kd ([13]; source organism: Vibrio vulnificus YJ016) was 0.0035 µM, the Kd [5, 52] was 0.0097 µM and the Kd [32, 52] was ≤ 0.001 µM.

Work on TMDPSVRVL yielded a Kd [12, 53] of 0.0414 µM, a Kd [37, 53] of 0.217 µM and a Kd [44] of 0.03 µM.

VVYKTGAIR showed a Kd [13, 53] of 0.0594 µM and a Kd ([5]; source organism: Mycobacterium leprae) of 0.751 µM.

For WILDRLFFK, the Kd ([13]; source organism: Influenza A virus (A/Memphis/1/1978(H1N1))) was 0.244 µM, the Kd [5, 54] was 0.0527 µM and the Kd [32, 54] was 0.0021 µM.
